Source: patent US20260227408A1, “Compositions and Methods for Modulation of Immune Responses” (Flagship Pioneering Innovations VI, LLC, priority 2022, published 2026)

Assays:
[1] = test system: CD3/CD28 (TransAct) activated PBMCs; experiment: PBMC cytokine release by CBA, Inhibition format (peptide with CD3/CD28 TransAct activator); format: cell-based, human; set-up: key to Inhibition by Analyte IL-1b / Inhibition by Analyte IL-2 / Inhibition by Analyte TNF / Inhibition by Analyte IP-10 / Inhibition by Analyte IL-10: X = a hit with significant activation or inhibition of relevant cytokine release; details: peptide applied with anti-CD3/CD28 T-cell activator; supernatant CBA after 24 hours
Protocol: (§1) CBA (Cytometry) experiment looking at pro-inflammatory cytokines produced by PBMCs treated with secreted peptides.
(§2) Peripheral Blood Mononuclear Cells were seeded+/−the T-cell activator […] and +/−peptides for 24-48 hours. Cytokines were measured from the supernatant after incubation by CBA Cytometer.
(§3) Thawing PBMCs: PBMCs were thawed by pre-warming TexMACS media (Miltenyi Biotech) in 20 ml aliquots-1-50 ml conical per donor. After the media was warmed to 37° C., cells were removed from liquid nitrogen and brought to the tissue culture hood. For each donor, 1 ml of media from the warmed aliquot was added to the frozen vial and mixed up and down. The media plus thawed cells were then added back to the 50 ml conical. This was repeated until all the cells were thawed and added to the 50 ml tube. Continue with other donors if used. Spin cells for 5 min at 400×g. Supernatant was aspirated and cells resuspended at ~10*10^6 cells/ml (see vial for cell number).
(§4) PBMC Plating: Frozen PBMCs from normal, healthy, human volunteers (StemCell Technologies) were thawed and plated at 250,000 cells/well. After PBMCs were thawed and resuspended at […], cells were then counted (Countess III, Thermo Scientific) and adjusted based on counts to […]. Take the number of PBMCs determined by number of wells for the experiment, for example, 10 wells would need 2.5*10^6 cells total or 0.250 ml. The cells needed for the experiment are then transferred to another conical tube. Warmed TexMACS media is added so that the final concentration is 250,000 cells/190 ul media, for example, 10 wells would need 1.9 ml (190 ul×10 wells) of media total minus 0.250 ml of cells (1.9 ml-0.250 ml) or 1.65 ml of media added to the 0.250 ml of cells. Add 190 ul of cells plus media to the 96 well U-bottom plate. Place in incubator until dilutions are made and ready.
(§5) Peptide Dilutions: Ideally, all peptides should be at a starting concentration of at least 10 mM, especially for those in DMSO (ATCC) to reach a final concentration of 1 uM (H2O) or 0.5 uM (DMSO). Dilutions of all test articles should be made at 20× the final concentration, for example, a final concentration of 1 uM peptide would need to be made at 20 uM.
(§6) Reagent Dilution: Dilutions are made in TexMACS media, enough for 10 ul/well in triplicate (30 ul of a 20×). Activator—CD3/CD28 (TransAct; Miltenyi Biotech) or cytokine will be at 21× and added after the 45-minute incubation with peptides. Be sure to include relevant controls—Positive: TransAct+Cells, Negative: Vehicle+Cells. Dilutions should also be made in a ultra-low binding plate (Corning).
(§7) Assay Procedure: Peptide Treatment: Start assay by thawing the cells and plating in a 96 well, U-bottom tissue culture plate (Corning) as described above. Cell plates are placed in a tissue culture incubator (5% CO2, 37° C.). While cells are in the incubator, start making dilutions (optimally 1 hr or less) as described above. Cell plates are removed from the incubator and 10 ul of the 20× dilutions are added to the relevant wells. After the addition of inhibitors, cell plates are placed in the tissue culture incubator for 45 minutes. The plates are removed from the incubator and 10 ul of […] TransAct is added to the relevant wells*. Plates are then returned to the incubator and incubated for 24 hours. After 24 hours, plates are spun for 5 minutes at 400×g. * Activation: This assay can be run in two different formats—Activation and Inhibition. The procedure is the same except no TransAct is needed in the peptide wells for Activation. TransAct is only needed in the control wells. The purpose of this procedure is to determine the possible response from peptides alone.
(§8) Cytometric BeadArray (CBA): After the spin, supernatants (~150 ul) are transferred to a new, ultra-low binding U-bottom plate. Supernatants are then frozen at −20° C. until thawed for CBA (BD) to determine levels of human IL-2, TNFa, IL-1b, IP-10, IL-10, and IFNg. […]

[2] = test system: Peripheral Blood Mononuclear Cells; experiment: PBMC cytokine release by CBA, Activation format (peptide alone); format: cell-based, human; set-up: key: X = a hit with significant activation or inhibition of relevant cytokine release; details: peptide applied to PBMCs alone; supernatant CBA after 24 hours
Protocol: as §1, §2, §3, §4, §5, §6, §7, §8

[3] = test system: Raji cells (human B cell lymphoma); experiment: pooled CRISPR KO screen: Raji cell killing by primary NK cells; format: cell-based; details: CRISPR KO of the protein in Raji cells, 24 hours co-culture with primary NK cells; for co-stimulatory effect on NK cytotoxicity (loss of function inhibits Raji cell killing): Example 4; for inhibitory effect on NK cytotoxicity (loss of function potentiates Raji cell killing): Example 5
Protocol: CRISPR system was used to generate a pooled KO library comprising 4,708 individual novel proteins within 2,127 lncRNAs and 998 known proteins in Raji cells (human B cell lymphoma). To understand the role of these proteins in modulation of NK cell cytotoxicity we conducted a cell killing assay using primary human NK cells. We examined the change in the initial library representation in Raji cells with the library representation after 24 hours of co-incubation with NK cells. We used known regulators of NK cell cytotoxicity as reference to establish hit significance.
CRISPR KO generation. CRISPR guide RNA library has been designed at ProFound Therapeutics to target 4,708 distinct predicted novel proteins localized within 2,127 lncRNA, 998 known proteins, including positive (inhibitors, for example B2M, TAP1, TAP2, HLA-DM) and negative (co-stimulators, for example, ICAM1, FAS, IL7, DGKE) of NK cell function, and 900 neutral controls (non-targeting and intergenic guide RNAs). The CRISPR guide RNA library was packaged into lentivirus, transduced into Raji Cas9 line at the MOI of 0.3 and selected using puromycin selection as described in [Sanjana N E, Shalem O, Zhang F. Nat. Methods. 2014 August; 11(8):783-4.
NK isolation and expansion. Primary human NK cells were isolated from frozen PBMCs using EasySep human NK cell isolation kit (StemCell, catalog #17955). Primary human NK cells were expanded using immunoCult NK cell expansion kit (StemCell, catalog #100-0711) following manufacturer protocol.
Screen setup. The screen was performed using 4 biological replicates. The NK cytotoxicity assay was performed by co-culturing 20 million Raji CRISPR KO library cells with 60 million primary NK cells for 24 hours in T75 tissue culture flask. NK cells were removed using positive CD56 selection kit (StemCell, catalog #17855). Dead cells were removed using EasySep dead cell removal (Annexin V) kit (StemCell, catalog #17899). Remaining Raji CRISPR KO library cells have been processed to extract genomic DNA. NGS library prep and illumina sequencing was performed on these cells and Raji cells prior to exposure to NK as described in [Sanjana N E, Shalem O, Zhang F. Nat. Methods. 2014 August; 11(8):783-4.
Data analysis. Screen analysis and interpretation was performed using ProFound Tx custom data analysis tools and confirmed with MAGeCK-VISPR as described in [Li W, Koster J, Xu H, Chen C H, Xiao T, Brown M, Liu S. Genome Biology 2015(281)].
Data analysis. Screen analysis and interpretation has been performed using ProFound Tx custom data analysis tools and confirmed with MAGeCK-VISPR as described in [Li W, Koster J, Xu H, Chen C H, Xiao T, Brown M, Liu S. Genome Biology 2015(281)].

SEQ ID NO: 35558: target protein of the Sequence Listing, applied as peptide to PBMCs (MTAFGLGIPTFLVMQPSGSQPRFPALTQNGVALVRTPLTSVYLRVRICRVLGPRSQPS; listed as Homo sapiens)
Inhibition by Analyte IL-1b [1]: X
Inhibition by Analyte TNF [1]: X
Activation by Analyte IL-10 [2]: X
Activation by Analyte IP-10 [2]: X

SEQ ID NO: 33482: novel co-stimulatory ligand that potentiates NK-mediated cytotoxicity; lncRNA-encoded protein (VVTGSILLSLPITQHLPLKALPRPGLPPFKMSGSVQDLLLGHIALLGLVQVILPPQPPK; listed as Homo sapiens)
co-stimulatory effect on NK cytotoxicity (loss of function inhibits Raji cell killing) [3]: strong phenotypes

SEQ ID NO: 35586: novel inhibitory ligand that suppresses NK-mediated cytotoxicity; lncRNA encoded protein (MWQNLNGDISSLWVSSLLAFNQLFCLTAAGLGTAQPP; listed as Homo sapiens)
inhibitory effect on NK cytotoxicity (loss of function potentiates Raji cell killing) [3]: strong phenotypes

B1: SEQ ID NO: 36902: target protein of the Sequence Listing, applied as peptide to PBMCs (peptide, listed as Homo sapiens)
chain: MQRLPAAFFRSFAAQGLGESVHINTPTSLSLRGRPFISSSGPGARARVTCAPCLHAARILCCFWRGLHR
Activation by Analyte IP-10 [2]: X

B2: SEQ ID NO: 33741: target protein of the Sequence Listing, applied as peptide to PBMCs (peptide, listed as Homo sapiens)
chain: MSYLPTNPPGSILTCWLGVSLGSHRSARGGSTIYGRLLPRRKDVWFSQAKDVPKYRGLLYLQS
Activation by Analyte IP-10 [2]: X

B3: SEQ ID NO: 37047: target protein of the Sequence Listing, applied as peptide to PBMCs (peptide, listed as Homo sapiens)
chain: MMAQKSKFRVLFMSDPHGTAMPLTSAILESSRASLAAKQEDKCFTDIRNLKWKHFLEHTKQPP
Activation by Analyte IP-10 [2]: X

B4: SEQ ID NO: 36545: novel inhibitory ligand that suppresses NK-mediated cytotoxicity; lncRNA encoded protein (protein, listed as Homo sapiens)
chain: MPEDLLFLDAAAQGLYFMLWLLSFELSVAVSELLRFTGPWRILSYTVHWVLDMQSVPFIAFLENNN
inhibitory effect on NK cytotoxicity (loss of function potentiates Raji cell killing) [3]: strong phenotypes

B5: SEQ ID NO: 37776: novel co-stimulatory ligand that potentiates NK-mediated cytotoxicity; lncRNA-encoded protein (protein, listed as Homo sapiens)
chain: MACIYPTTFYTSLPTKSLNMGISLTTILILSVAVLLSTAAPPSCRECYQSLHYRGEMQQYFTYHTHIERSCYGNLIEECVESGKSYYKVKNLGVCGSRNGAICPRGKQWLCFTKIGQWGVNTQVLEDIKREQIIAKAKASKPTTPPENRPRHFHSFIQKL
co-stimulatory effect on NK cytotoxicity (loss of function inhibits Raji cell killing) [3]: strong phenotypes

B6: SEQ ID NO: 38393: target protein of the Sequence Listing, applied as peptide to PBMCs (peptide, listed as Homo sapiens)
chain: VALSLLTSQGRQRRAGPSTAFAALPATVATFSAMTESESLRTSRHADTALARVRRGAKFRGQARTRYCARARSHRFTPPSGA
Activation by Analyte IP-10 [2]: X

B7: SEQ ID NO: 2013: novel inhibitory ligand that suppresses NK-mediated cytotoxicity; lncRNA encoded protein (protein, listed as Homo sapiens)
chain: MLSEGKPIPRREGKTATTERTFAVPVWKEIGISWRGLASTAGLFKSSTSILEENNADSRKMACHFGMCLAALLIKGKVLFFTF
inhibitory effect on NK cytotoxicity (loss of function potentiates Raji cell killing) [3]: strong phenotypes

B8: SEQ ID NO: 35050: novel co-stimulatory ligand that potentiates NK-mediated cytotoxicity; lncRNA-encoded protein (protein, listed as Homo sapiens)
chain: IYAHVGTEESSVVAMFSPQELTGEGMGQDPSLCKASVTVMFQVFLMTVCLYLTVLLTNNLLGSKGQHLLSKAQEEFEEN
co-stimulatory effect on NK cytotoxicity (loss of function inhibits Raji cell killing) [3]: strong phenotypes

B9: SEQ ID NO: 37477: target protein of the Sequence Listing, applied as peptide to PBMCs (peptide, listed as Homo sapiens)
chain: MSCGSRRGPSLASSLAWLQLQSGTRPFCSSSPPYFLSHGRRIPFSHPRKESALRATKEPRTHRTNTSLADLPSPAPAHL
Activation by Analyte IL-1b [2]: X
